B1: NRC3_wobSeed37_DR1_G24A_o1 (dsDNA)
DNA 1: GCCGTCCAAGGTCAAAGGTCAGTAAAGAGATGACGGGCGATTGACAGCGTAGAATGAAGG
DNA 2: CCTTCATTCTACGCTGTCAATCGCCCGTCATCTCTTTACTGACCTTTGACCTTGGACGGC
B2: NRC3_wobSeed37_DR1_G22C_o1 (dsDNA)
DNA 1: GCCGTCCAAGGTCAAAGGTCACTGAAGAGATGACGGGCGATTGACAGCGTAGAATGAAGG
DNA 2: CCTTCATTCTACGCTGTCAATCGCCCGTCATCTCTTCAGTGACCTTTGACCTTGGACGGC
B3: NRC3_wobSeed37_DR1_C6T_o1 (dsDNA)
DNA 1: GCCGTTCAAGGTCAAAGGTCAGTGAAGAGATGACGGGCGATTGACAGCGTAGAATGAAGG
DNA 2: CCTTCATTCTACGCTGTCAATCGCCCGTCATCTCTTCACTGACCTTTGACCTTGAACGGC
B4: NRC3_wobSeed29_DR1_C25T_o1 (dsDNA)
DNA 1: GCGCTTACGGGTCAAAGGTTATAGTATGAATAGAATGCGATTGACAGCGTAGAATGAAGG
DNA 2: CCTTCATTCTACGCTGTCAATCGCATTCTATTCATACTATAACCTTTGACCCGTAAGCGC
B5: NRC3_wobSeed29_DR1_A7C_o1 (dsDNA)
DNA 1: GCGCTTCCGGGTCAAAGGTTATAGCATGAATAGAATGCGATTGACAGCGTAGAATGAAGG
DNA 2: CCTTCATTCTACGCTGTCAATCGCATTCTATTCATGCTATAACCTTTGACCCGGAAGCGC
B6: NRC3_random_hg19_250_o1 (dsDNA)
DNA 1: GCCAAGACCATCCTGGCTAACACAGTGAAACCCTGTGCGATTGACAGCGTAGAATGAAGG
DNA 2: CCTTCATTCTACGCTGTCAATCGCACAGGGTTTCACTGTGTTAGCCAGGATGGTCTTGGC
B7: NRC3_wobSeed33_DR1_A13T_o1 (dsDNA)
DNA 1: GCATCTCTAGGTTAAAGTTCAGTGAATCCCGAGGATGCGATTGACAGCGTAGAATGAAGG
DNA 2: CCTTCATTCTACGCTGTCAATCGCATCCTCGGGATTCACTGAACTTTAACCTAGAGATGC
B8: NRC3_wobSeed76_DR3_T21C_o1 (dsDNA)
DNA 1: GCCCTACTGGGCCAAAAAGGCCATTGATGCCGATAAGCGATTGACAGCGTAGAATGAAGG
DNA 2: CCTTCATTCTACGCTGTCAATCGCTTATCGGCATCAATGGCCTTTTTGGCCCAGTAGGGC
B9: NRC3_random_hg19_290_o1 (dsDNA)
DNA 1: GCGCCTCCATCTCAGGACTTGATTCTATTGAGTTAAGCGATTGACAGCGTAGAATGAAGG
DNA 2: CCTTCATTCTACGCTGTCAATCGCTTAACTCAATAGAATCAAGTCCTGAGATGGAGGCGC
B10: NRC3_random_hg19_455_o1 (dsDNA)
DNA 1: GCCTGCAGTTTCTGTTTCCGTGGTCCAGGTTGAGCCGCGATTGACAGCGTAGAATGAAGG
DNA 2: CCTTCATTCTACGCTGTCAATCGCGGCTCAACCTGGACCACGGAAACAGAAACTGCAGGC
B11: NRC3_random_hg19_499_o1 (dsDNA)
DNA 1: GCCATGTGGACTTCATTCGACCCAGCTGAGAAGACTGCGATTGACAGCGTAGAATGAAGG
DNA 2: CCTTCATTCTACGCTGTCAATCGCAGTCTTCTCAGCTGGGTCGAATGAAGTCCACATGGC
B12: NRC3_random_hg19_319_o1 (dsDNA)
DNA 1: GCTCCCTGCCAGCCCTGGTCTGAAGCAAGCCTAGAGGCGATTGACAGCGTAGAATGAAGG
DNA 2: CCTTCATTCTACGCTGTCAATCGCCTCTAGGCTTGCTTCAGACCAGGGCTGGCAGGGAGC
B13: NRC3_random_hg19_195_o1 (dsDNA)
DNA 1: GCGGACTGTCTGCAAAGAGTCCTGTGATATGATCTGGCGATTGACAGCGTAGAATGAAGG
DNA 2: CCTTCATTCTACGCTGTCAATCGCCAGATCATATCACAGGACTCTTTGCAGACAGTCCGC
B14: NRC3_wobSeed13_DR0_C7A_o1 (dsDNA)
DNA 1: GCCGTCAAAGGTCAAGGTCAGTGAAAGAGACTCGAAGCGATTGACAGCGTAGAATGAAGG
DNA 2: CCTTCATTCTACGCTGTCAATCGCTTCGAGTCTCTTTCACTGACCTTGACCTTTGACGGC
B15: NRC3_random_hg19_385_o1 (dsDNA)
DNA 1: GCTCTATGGTCACTAGACCTTGGGATGCACCAAGGCGCGATTGACAGCGTAGAATGAAGG
DNA 2: CCTTCATTCTACGCTGTCAATCGCGCCTTGGTGCATCCCAAGGTCTAGTGACCATAGAGC
B16: NRC3_wobSeed73_DR3_A6T_o1 (dsDNA)
DNA 1: GCCAATCTAGGTCACAGAGGTCAAAGTCCGTGCGTAGCGATTGACAGCGTAGAATGAAGG
DNA 2: CCTTCATTCTACGCTGTCAATCGCTACGCACGGACTTTGACCTCTGTGACCTAGATTGGC
B17: NRC3_wobSeed93_DR3_T11G_o1 (dsDNA)
DNA 1: GCAGTCAAAGGTCATCTAGGTAACGTAAGATATGCTGCGATTGACAGCGTAGAATGAAGG
DNA 2: CCTTCATTCTACGCTGTCAATCGCAGCATATCTTACGTTACCTAGATGACCTTTGACTGC
B18: NRC3_random_hg19_169_o1 (dsDNA)
DNA 1: GCCTTCCCTGCTGCTTTGTTTACCTAAGCAAGCCTGGCGATTGACAGCGTAGAATGAAGG
DNA 2: CCTTCATTCTACGCTGTCAATCGCCAGGCTTGCTTAGGTAAACAAAGCAGCAGGGAAGGC
B19: NRC3_wobSeed25_DR1_C26T_o1 (dsDNA)
DNA 1: GCCAAACTAGGTCAAAGGTCAAAGTTGAGCCAACCAGCGATTGACAGCGTAGAATGAAGG
DNA 2: CCTTCATTCTACGCTGTCAATCGCTGGTTGGCTCAACTTTGACCTTTGACCTAGTTTGGC
B20: NRC3_wobSeed25_DR1_A5G_o1 (dsDNA)
DNA 1: GCCAGACTAGGTCAAAGGTCAAAGTCGAGCCAACCAGCGATTGACAGCGTAGAATGAAGG
DNA 2: CCTTCATTCTACGCTGTCAATCGCTGGTTGGCTCGACTTTGACCTTTGACCTAGTCTGGC

Columns and labels:
[1] = target: RARa:RXRa (Homo sapiens, UniProt P10276;P19793 full;full); assay: no ligand; PBM; 270 nM : 90 nM RXRa; PBS pH 7.4, 2% milk, 0.02% Triton X-100, 1 mM DTT, BSA, 0.4 mg/ml salmon testes DNA; details: tags: His kept;His cleaved; copies: 1;1; label: surface-attached array probe
Outline: (§1)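 Binding buffer was PBS pH 7.4 with 2% milk, 0.02% Triton X-100, 1 mM DTT, 0.2 mg/mL BSA and 0.4 mg/ml salmon testes DNA. In it, ligand-free nuclear receptor dimers were incubated 1 h on custom Agilent 4×180K protein-binding microarrays carrying double-stranded probes. Antibodies against each partner (one per run) detected binding, and z-scores were calculated against random background probes after regression normalization of scanned fluorescence.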

[2] = target: RARg:RXRa (Homo sapiens, UniProt P13631;P19793 full;full); assay: as above; details: tags: His kept;His cleaved; copies: 1;1; label: surface-attached array probe
Outline: as §1

[3] = target: PXR:RXRa (Homo sapiens, UniProt O75469;P19793 full;full); assay: as above; details: tags: His kept;His cleaved; copies: 1;1; label: surface-attached array probe
Outline: as §1

[4] = target: VDR:RXRa (Homo sapiens, UniProt P11473;P19793 full;full); assay: as above; details: tags: His kept;His cleaved; copies: 1;1; label: surface-attached array probe
Outline: as §1

[5] = target: PPARg:RXRa (Homo sapiens, UniProt P37231;P19793 full;full); assay: no ligand; PBM; 180 nM : 90 nM RXRa; PBS pH 7.4, 2% milk, 0.02% Triton X-100, 1 mM DTT, BSA, 0.4 mg/ml salmon testes DNA; details: tags: His kept;His cleaved; copies: 1;1; label: surface-attached array probe
[6] = target: LXRa:RXRa (Homo sapiens, UniProt Q13133;P19793 full;full); assay: no ligand; PBM; 270 nM : 90 nM RXRa; PBS pH 7.4, 2% milk, 0.02% Triton X-100, 1 mM DTT, BSA, 0.4 mg/ml salmon testes DNA; details: tags: His kept;His cleaved; copies: 1;1; label: surface-attached array probe
Outline: as §1

[7] = target: FXR:RXRa (Homo sapiens, UniProt Q96RI1;P19793 full;full); assay: as above; details: tags: His kept;His cleaved; copies: 1;1; label: surface-attached array probe
Outline: as §1

[8] = target: RARb:RXRa (Homo sapiens, UniProt P10826;P19793 full;full); assay: as above; details: tags: His kept;His cleaved; copies: 1;1; label: surface-attached array probe
Outline: as §1

[9] = target: LXRb:RXRa (Homo sapiens, UniProt P55055;P19793 full;full); assay: as above; details: tags: His kept;His cleaved; copies: 1;1; label: surface-attached array probe
Outline: as §1

[10] = target: PPARa:RXRa (Homo sapiens, UniProt Q07869;P19793 full;full); assay: as above; details: tags: GST kept;His cleaved; copies: 1;1; label: surface-attached array probe
Outline: as §1

[11] = target: RXRa (Homo sapiens, UniProt P19793); assay: no ligand; PBM; 180 nM; PBS pH 7.4, 2% milk, 0.02% Triton X-100, 1 mM DTT, BSA, 0.4 mg/ml salmon testes DNA; details: tags: His cleaved; chain copies: 2; label: surface-attached array probe

Chain of PPARg:RXRa (P37231 29-505, chain 1 of 2): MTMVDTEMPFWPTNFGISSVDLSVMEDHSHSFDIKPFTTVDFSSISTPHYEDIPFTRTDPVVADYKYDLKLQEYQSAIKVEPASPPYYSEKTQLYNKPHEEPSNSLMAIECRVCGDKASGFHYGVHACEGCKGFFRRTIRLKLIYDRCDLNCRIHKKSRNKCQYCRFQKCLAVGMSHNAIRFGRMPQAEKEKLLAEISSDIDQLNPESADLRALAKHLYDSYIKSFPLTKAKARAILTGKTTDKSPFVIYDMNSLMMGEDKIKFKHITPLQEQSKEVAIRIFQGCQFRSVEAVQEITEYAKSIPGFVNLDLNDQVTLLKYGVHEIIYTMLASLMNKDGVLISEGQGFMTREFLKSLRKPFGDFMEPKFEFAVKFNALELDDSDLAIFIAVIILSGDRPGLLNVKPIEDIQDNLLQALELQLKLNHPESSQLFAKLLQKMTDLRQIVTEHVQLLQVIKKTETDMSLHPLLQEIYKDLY
Chain of PPARg:RXRa (P19793 whole entry, chain 2 of 2): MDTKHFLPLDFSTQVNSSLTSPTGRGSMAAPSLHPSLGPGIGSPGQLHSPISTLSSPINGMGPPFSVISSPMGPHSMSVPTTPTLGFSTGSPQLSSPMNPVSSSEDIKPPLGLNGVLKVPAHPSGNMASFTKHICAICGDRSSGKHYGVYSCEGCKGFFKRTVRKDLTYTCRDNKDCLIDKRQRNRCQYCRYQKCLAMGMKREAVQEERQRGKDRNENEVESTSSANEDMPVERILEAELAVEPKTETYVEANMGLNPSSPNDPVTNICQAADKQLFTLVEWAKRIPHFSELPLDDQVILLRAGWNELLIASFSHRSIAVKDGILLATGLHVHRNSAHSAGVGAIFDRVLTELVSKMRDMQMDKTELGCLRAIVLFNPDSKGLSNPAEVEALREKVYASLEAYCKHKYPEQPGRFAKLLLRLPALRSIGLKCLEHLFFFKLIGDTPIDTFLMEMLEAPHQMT
Chain of FXR:RXRa (Q96RI1 whole entry, chain 1 of 2): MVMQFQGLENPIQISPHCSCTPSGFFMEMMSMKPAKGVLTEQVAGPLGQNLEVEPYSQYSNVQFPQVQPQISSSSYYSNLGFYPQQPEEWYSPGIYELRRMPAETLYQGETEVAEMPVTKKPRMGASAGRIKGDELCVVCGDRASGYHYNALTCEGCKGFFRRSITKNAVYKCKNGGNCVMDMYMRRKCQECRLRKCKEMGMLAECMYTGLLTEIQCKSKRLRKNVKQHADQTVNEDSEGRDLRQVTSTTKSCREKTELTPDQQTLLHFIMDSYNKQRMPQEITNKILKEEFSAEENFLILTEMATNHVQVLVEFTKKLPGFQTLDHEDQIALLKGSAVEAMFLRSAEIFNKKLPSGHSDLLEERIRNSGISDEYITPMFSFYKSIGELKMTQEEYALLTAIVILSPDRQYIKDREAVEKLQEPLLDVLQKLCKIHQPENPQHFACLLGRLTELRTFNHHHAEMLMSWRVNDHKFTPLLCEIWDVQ
Chain of FXR:RXRa (P19793 whole entry, chain 2 of 2): as the sequence (P19793 whole entry, chain 2 of 2) above
Chain of LXRb:RXRa (P55055 whole entry, chain 1 of 2): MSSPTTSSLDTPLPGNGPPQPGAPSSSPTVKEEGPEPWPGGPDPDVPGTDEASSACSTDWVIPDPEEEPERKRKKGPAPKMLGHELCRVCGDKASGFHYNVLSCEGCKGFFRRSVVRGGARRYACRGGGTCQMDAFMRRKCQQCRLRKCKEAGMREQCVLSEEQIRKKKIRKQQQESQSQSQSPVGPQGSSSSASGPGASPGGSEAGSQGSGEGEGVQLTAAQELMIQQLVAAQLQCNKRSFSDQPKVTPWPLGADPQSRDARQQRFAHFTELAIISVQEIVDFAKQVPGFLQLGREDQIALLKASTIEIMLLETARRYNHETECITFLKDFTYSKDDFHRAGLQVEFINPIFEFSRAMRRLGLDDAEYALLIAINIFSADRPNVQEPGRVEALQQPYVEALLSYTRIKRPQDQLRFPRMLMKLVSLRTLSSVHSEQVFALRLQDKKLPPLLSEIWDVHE
Chain of LXRb:RXRa (P19793 whole entry, chain 2 of 2): as the sequence (P19793 whole entry, chain 2 of 2) above
Chain of LXRa:RXRa (Q13133 whole entry, chain 1 of 2): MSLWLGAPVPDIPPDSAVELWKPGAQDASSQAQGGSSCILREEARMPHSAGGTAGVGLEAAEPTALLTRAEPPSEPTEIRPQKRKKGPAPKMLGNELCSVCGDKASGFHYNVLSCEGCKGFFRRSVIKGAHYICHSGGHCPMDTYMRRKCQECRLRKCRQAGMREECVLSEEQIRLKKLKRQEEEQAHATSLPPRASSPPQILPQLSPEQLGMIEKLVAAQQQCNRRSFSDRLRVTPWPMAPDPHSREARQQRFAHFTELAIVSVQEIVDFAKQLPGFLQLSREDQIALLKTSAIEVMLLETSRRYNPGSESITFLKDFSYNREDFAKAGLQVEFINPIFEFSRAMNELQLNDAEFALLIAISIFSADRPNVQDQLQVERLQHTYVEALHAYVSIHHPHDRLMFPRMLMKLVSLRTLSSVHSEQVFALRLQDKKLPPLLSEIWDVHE
Chain of LXRa:RXRa (P19793 whole entry, chain 2 of 2): as the sequence (P19793 whole entry, chain 2 of 2) above
Chain of RARb:RXRa (P10826 whole entry, chain 1 of 2): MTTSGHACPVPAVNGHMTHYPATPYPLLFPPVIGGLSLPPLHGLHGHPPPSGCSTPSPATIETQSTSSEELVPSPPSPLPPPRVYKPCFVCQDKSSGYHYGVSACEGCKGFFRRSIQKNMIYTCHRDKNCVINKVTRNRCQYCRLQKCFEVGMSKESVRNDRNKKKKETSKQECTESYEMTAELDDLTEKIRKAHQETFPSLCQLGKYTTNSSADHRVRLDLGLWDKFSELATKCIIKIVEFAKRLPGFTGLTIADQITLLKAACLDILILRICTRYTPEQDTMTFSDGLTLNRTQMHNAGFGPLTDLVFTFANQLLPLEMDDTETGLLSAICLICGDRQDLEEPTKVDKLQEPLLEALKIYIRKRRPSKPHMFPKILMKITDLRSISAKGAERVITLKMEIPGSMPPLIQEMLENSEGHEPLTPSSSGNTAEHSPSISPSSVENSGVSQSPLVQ
Chain of RARb:RXRa (P19793 whole entry, chain 2 of 2): as the sequence (P19793 whole entry, chain 2 of 2) above

Binder | binding signal [3] | binding signal [5] | binding signal [6] | further results
B1 | – | – | – | binding signal [1]: 9.33 PBM z-score against 500 random probes
B2 | 7.38 PBM z-score against 500 random probes | 11.9 PBM z-score against 500 random probes | – | binding signal [2]: 9.31 PBM z-score against 500 random probes; binding signal [4]: 7.17 PBM z-score against 500 random probes
B3 | – | 11.8 PBM z-score against 500 random probes | 7.33 PBM z-score against 500 random probes | binding signal [7]: 8.83 PBM z-score against 500 random probes
B4 | – | – | – | binding signal [1]: 8.73 PBM z-score against 500 random probes
B5 | 6.49 PBM z-score against 500 random probes | 12.4 PBM z-score against 500 random probes | – | –
B6 | – | 0.19 PBM z-score against 500 random probes | -0.15 PBM z-score against 500 random probes | binding signal [8]: -0.3 PBM z-score against 500 random probes; binding signal [9]: -0.42 PBM z-score against 500 random probes; binding signal [7]: 0 PBM z-score against 500 random probes; binding signal [4]: -0.26 PBM z-score against 500 random probes
B7 | 3.64 PBM z-score against 500 random probes | 10 PBM z-score against 500 random probes | – | –
B8 | -0.08 PBM z-score against 500 random probes | 0.38 PBM z-score against 500 random probes | – | –
B9 | -0.26 PBM z-score against 500 random probes | -0.43 PBM z-score against 500 random probes | – | binding signal [2]: -0.59 PBM z-score against 500 random probes; binding signal [10]: -0.45 PBM z-score against 500 random probes
B10 | -0.33 PBM z-score against 500 random probes | -2.08 PBM z-score against 500 random probes | – | –
B11 | – | 0.35 PBM z-score against 500 random probes | 0.09 PBM z-score against 500 random probes | binding signal [9]: 0.14 PBM z-score against 500 random probes
B12 | -0.63 PBM z-score against 500 random probes | -1.25 PBM z-score against 500 random probes | – | –
B13 | -0.96 PBM z-score against 500 random probes | 0.1 PBM z-score against 500 random probes | -1.32 PBM z-score against 500 random probes | –
B14 | – | 9.87 PBM z-score against 500 random probes | 7.37 PBM z-score against 500 random probes | binding signal [8]: 6.38 PBM z-score against 500 random probes; binding signal [2]: 8.25 PBM z-score against 500 random probes; binding signal [10]: 6.81 PBM z-score against 500 random probes; binding signal [9]: 6.31 PBM z-score against 500 random probes; binding signal [7]: 9.06 PBM z-score against 500 random probes; binding signal [11]: 8.68 PBM z-score against 500 random probes
B15 | 0.11 PBM z-score against 500 random probes | 0.45 PBM z-score against 500 random probes | 0.2 PBM z-score against 500 random probes | –
B16 | 7.27 PBM z-score against 500 random probes | 10.7 PBM z-score against 500 random probes | – | –
B17 | – | 10.1 PBM z-score against 500 random probes | 7.01 PBM z-score against 500 random probes | binding signal [8]: 6.16 PBM z-score against 500 random probes; binding signal [2]: 7.62 PBM z-score against 500 random probes; binding signal [10]: 7.57 PBM z-score against 500 random probes; binding signal [9]: 6.47 PBM z-score against 500 random probes; binding signal [7]: 8.84 PBM z-score against 500 random probes; binding signal [11]: 8.08 PBM z-score against 500 random probes
B18 | – | -1.09 PBM z-score against 500 random probes | -0.21 PBM z-score against 500 random probes | binding signal [8]: -0.32 PBM z-score against 500 random probes
B19 | – | – | – | binding signal [1]: 9.38 PBM z-score against 500 random probes
B20 | – | – | – | binding signal [1]: 9.27 PBM z-score against 500 random probes

— article PMC6555819, “Comprehensive study of nuclear receptor DNA binding provides a revised framework for understanding receptor specificity”
